# According to US20250197503A1 (SHANGHAI INSTITUTE OF MATERIA MEDICA CHINESE ACADEMY OF …, published 2025):
# Tests used:
# [1] = biological target: T1, human PD-L1 protein (ELISA antigen) (human, UniProt Q9NZQ7 19-238, limits assumed); experiment: relative to original antibody h_Nb2 (SEQ ID NO. 5); ELISA comparison per Example 10
# T1 construct: One molecule is used for both ELISAs; also called PD-L1-biotin protein
# [2] = biological target: T1, human PD-L1 protein (ELISA antigen); experiment: ELISA; PD-L1 protein on NeutrAvidin plate, crude nanobody, anti-HA detection; positive = absorbance more than three times control
# Experimental: After several rounds of panning, TG1 competent cells in the logarithmic phase of growth were infected with the eluted phages, gradiently diluted and spread on the plate for overnight culture. 96 clones were picked and inoculated into a 96-well round-bottom plate with 100 μL of culture medium per well and left to be incubated overnight as the master plate. Then 10 μL of overnight cultured bacterial solution was pipetted into a 96-well deep-bottom plate with 1 mL of culture medium per well to induce nanobody expression which was then subjected to crude purification. The 96-well ELISA plate was coated with 5 μg/mL NeutrAvidin solution at 4° C., 700 rpm, overnight. The next day, 2% skim milk powder was added to block the plate at room temperature and washed 3 times with a solution containing bovine serum albumin BSA. 100 μL 3 μg/mL PD-L1 protein was added and incubated at room temperature for 30 minutes, then washed. The crudely extracted nanobody was added and incubated at room temperature for 1 h followed by washing. Mouse anti-HA primary antibody was added and the mixture was incubated at room temperature for 1 hour followed by washing. Goat anti-mouse alkaline phosphatase-labeled secondary antibody was added and the mixture was incubated at room temperature for 1 hour followed by washing. Alkaline phosphatase colorimetric solution was added for 10 minutes, and the absorption value was detected at 405 nm on a microplate reader. A well with an absorption value that is more than three times the absorption value of the control group is preliminarily determined as a positive well. The positive clones were transferred to a shaking tube for culture in order to extract the plasmid and then subjected to sequencing. Finally, 11 candidate positive clones were obtained.
# [3] = biological target: T1, human PD-L1 protein (ELISA antigen); experiment: relative to original antibody h_Nb1 (SEQ ID NO. 1); ELISA comparison per Example 10
# T1 sequence (Q9NZQ7 19-238 limits assumed): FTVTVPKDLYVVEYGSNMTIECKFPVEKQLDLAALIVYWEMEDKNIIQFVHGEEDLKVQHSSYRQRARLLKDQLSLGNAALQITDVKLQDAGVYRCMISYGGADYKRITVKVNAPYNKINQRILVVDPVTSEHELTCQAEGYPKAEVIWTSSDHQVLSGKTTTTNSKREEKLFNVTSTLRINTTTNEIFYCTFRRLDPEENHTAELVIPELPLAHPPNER
Improved value of relative affinity [1],Improved value of relative affinity [3],Binder,further results
1.46,–,"h_Nb2_F29R (VHH, also called 93) VHH: DVQLQESGGGLVQPGGSLRLSCAASGFTRGDRWMYWLRQAPGKGLEWVSSINPAGRSTYYADSVKGRFTISRDNAKNTLYLQMNSLKSEDTAVYYCTKDPGGYQKGQGTQVTVSS",–
10,–,"h_Nb2_G30W (VHH, also called 89) VHH: DVQLQESGGGLVQPGGSLRLSCAASGFTFWDRWMYWLRQAPGKGLEWVSSINPAGRSTYYADSVKGRFTISRDNAKNTLYLQMNSLKSEDTAVYYCTKDPGGYQKGQGTQVTVSS",–
8.48,–,"h_Nb2_G101Y (VHH, also called 92) VHH: DVQLQESGGGLVQPGGSLRLSCAASGFTFGDRWMYWLRQAPGKGLEWVSSINPAGRSTYYADSVKGRFTISRDNAKNTLYLQMNSLKSEDTAVYYCTKDPYGYQKGQGTQVTVSS",–
6.23,–,"h_Nb2_G30R (VHH, also called 87) VHH: DVQLQESGGGLVQPGGSLRLSCAASGFTFRDRWMYWLRQAPGKGLEWVSSINPAGRSTYYADSVKGRFTISRDNAKNTLYLQMNSLKSEDTAVYYCTKDPGGYQKGQGTQVTVSS",–
5.92,–,"h_Nb2_G101W (VHH, also called 91) VHH: DVQLQESGGGLVQPGGSLRLSCAASGFTFGDRWMYWLRQAPGKGLEWVSSINPAGRSTYYADSVKGRFTISRDNAKNTLYLQMNSLKSEDTAVYYCTKDPWGYQKGQGTQVTVSS",–
5.11,–,"h_Nb2_G30F (VHH, also called 88) VHH: DVQLQESGGGLVQPGGSLRLSCAASGFTFFDRWMYWLRQAPGKGLEWVSSINPAGRSTYYADSVKGRFTISRDNAKNTLYLQMNSLKSEDTAVYYCTKDPGGYQKGQGTQVTVSS",–
7.21,–,"h_Nb2_P100R (VHH, also called 95) VHH: DVQLQESGGGLVQPGGSLRLSCAASGFTFGDRWMYWLRQAPGKGLEWVSSINPAGRSTYYADSVKGRFTISRDNAKNTLYLQMNSLKSEDTAVYYCTKDRGGYQKGQGTQVTVSS",–
3.98,–,"h_Nb2_P100E (VHH, also called 97) VHH: DVQLQESGGGLVQPGGSLRLSCAASGFTFGDRWMYWLRQAPGKGLEWVSSINPAGRSTYYADSVKGRFTISRDNAKNTLYLQMNSLKSEDTAVYYCTKDEGGYQKGQGTQVTVSS",–
1.44,–,"h_Nb2_F29W (VHH, also called 94) VHH: DVQLQESGGGLVQPGGSLRLSCAASGFTWGDRWMYWLRQAPGKGLEWVSSINPAGRSTYYADSVKGRFTISRDNAKNTLYLQMNSLKSEDTAVYYCTKDPGGYQKGQGTQVTVSS",–
6.5,–,"h_Nb2_G101R (VHH, also called 90) VHH: DVQLQESGGGLVQPGGSLRLSCAASGFTFGDRWMYWLRQAPGKGLEWVSSINPAGRSTYYADSVKGRFTISRDNAKNTLYLQMNSLKSEDTAVYYCTKDPRGYQKGQGTQVTVSS",–
3.41,–,"h_Nb2_P100Q (VHH, also called 96) VHH: DVQLQESGGGLVQPGGSLRLSCAASGFTFGDRWMYWLRQAPGKGLEWVSSINPAGRSTYYADSVKGRFTISRDNAKNTLYLQMNSLKSEDTAVYYCTKDQGGYQKGQGTQVTVSS",–
–,–,h_Nb13 VHH (VHH) VHH: DVQLQESGGGLVQPGGSLRLSCAASGSIFSINAMGWYRQAPGKSRELVAAITSGGSTNYADSVKGRFTISRDTAKNTVYLLMNSLEPEDTAVYYCNVERRRPPHYLSEYDFDWGQGTQVTVSS,binding result [2]: binds
–,–,h_Nb26 VHH (VHH) VHH: DVQLQESGGGLVQPGGSLRLSCAAPGSIFRINAMGWYRQAPGKQRELVAAITSGGSTNYADSVQGRFTISRDNAKNTVYLQMNSLKPEDTAVYYCNVERRRPPHYYSDYDFDWGQGTQVTVSS,binding result [2]: binds
–,–,h_Nb1 VHH (VHH) VHH: DVQLQESGGGLVQPGGSLRLSCAASGFTFSSYAMSWVRQAPGKGLEWVSDINSGGDNTDYADSVKGRFTISRDNAKNTLYLQMNSLKPEDTAVYYCARGPKLCFSSWGQGTQVTVSS,binding result [2]: binds
–,4.12,"h_Nb1_A61K (VHH, also called 74) VHH: DVQLQESGGGLVQPGGSLRLSCAASGFTFSSYAMSWVRQAPGKGLEWVSDINSGGDNTDYKDSVKGRFTISRDNAKNTLYLQMNSLKPEDTAVYYCARGPKLCFSSWGQGTQVTVSS",–
–,6.16,"h_Nb1_G99Q (VHH, also called 84) VHH: DVQLQESGGGLVQPGGSLRLSCAASGFTFSSYAMSWVRQAPGKGLEWVSDINSGGDNTDYADSVKGRFTISRDNAKNTLYLQMNSLKPEDTAVYYCARQPKLCFSSWGQGTQVTVSS",–
–,5.8,"h_Nb1_D62Y (VHH, also called 79) VHH: DVQLQESGGGLVQPGGSLRLSCAASGFTFSSYAMSWVRQAPGKGLEWVSDINSGGDNTDYAYSVKGRFTISRDNAKNTLYLQMNSLKPEDTAVYYCARGPKLCFSSWGQGTQVTVSS",–
–,12.1,"h_Nb1_G99R (VHH, also called 83) VHH: DVQLQESGGGLVQPGGSLRLSCAASGFTFSSYAMSWVRQAPGKGLEWVSDINSGGDNTDYADSVKGRFTISRDNAKNTLYLQMNSLKPEDTAVYYCARRPKLCFSSWGQGTQVTVSS",–
–,5.12,"h_Nb1_D59F (VHH, also called 77) VHH: DVQLQESGGGLVQPGGSLRLSCAASGFTFSSYAMSWVRQAPGKGLEWVSDINSGGDNTFYADSVKGRFTISRDNAKNTLYLQMNSLKPEDTAVYYCARGPKLCFSSWGQGTQVTVSS",–
–,7.02,"h_Nb1_G99Y (VHH, also called 86) VHH: DVQLQESGGGLVQPGGSLRLSCAASGFTFSSYAMSWVRQAPGKGLEWVSDINSGGDNTDYADSVKGRFTISRDNAKNTLYLQMNSLKPEDTAVYYCARYPKLCFSSWGQGTQVTVSS",–
–,6.16,"h_Nb1_G99W (VHH, also called 85) VHH: DVQLQESGGGLVQPGGSLRLSCAASGFTFSSYAMSWVRQAPGKGLEWVSDINSGGDNTDYADSVKGRFTISRDNAKNTLYLQMNSLKPEDTAVYYCARWPKLCFSSWGQGTQVTVSS",–
–,4.9,"h_Nb1_D59M (VHH, also called 76) VHH: DVQLQESGGGLVQPGGSLRLSCAASGFTFSSYAMSWVRQAPGKGLEWVSDINSGGDNTMYADSVKGRFTISRDNAKNTLYLQMNSLKPEDTAVYYCARGPKLCFSSWGQGTQVTVSS",–
–,5.13,"h_Nb1_A61N (VHH, also called 72) VHH: DVQLQESGGGLVQPGGSLRLSCAASGFTFSSYAMSWVRQAPGKGLEWVSDINSGGDNTDYNDSVKGRFTISRDNAKNTLYLQMNSLKPEDTAVYYCARGPKLCFSSWGQGTQVTVSS",–
–,11.7,"h_Nb1_D62W (VHH, also called 78) VHH: DVQLQESGGGLVQPGGSLRLSCAASGFTFSSYAMSWVRQAPGKGLEWVSDINSGGDNTDYAWSVKGRFTISRDNAKNTLYLQMNSLKPEDTAVYYCARGPKLCFSSWGQGTQVTVSS",–
–,3.31,"h_Nb1_C103K (VHH, also called 80) VHH: DVQLQESGGGLVQPGGSLRLSCAASGFTFSSYAMSWVRQAPGKGLEWVSDINSGGDNTDYADSVKGRFTISRDNAKNTLYLQMNSLKPEDTAVYYCARGPKLKFSSWGQGTQVTVSS",–
–,4.66,"h_Nb1_A61Q (VHH, also called 73) VHH: DVQLQESGGGLVQPGGSLRLSCAASGFTFSSYAMSWVRQAPGKGLEWVSDINSGGDNTDYQDSVKGRFTISRDNAKNTLYLQMNSLKPEDTAVYYCARGPKLCFSSWGQGTQVTVSS",–
–,4.28,"h_Nb1_D59R (VHH, also called 75) VHH: DVQLQESGGGLVQPGGSLRLSCAASGFTFSSYAMSWVRQAPGKGLEWVSDINSGGDNTRYADSVKGRFTISRDNAKNTLYLQMNSLKPEDTAVYYCARGPKLCFSSWGQGTQVTVSS",–
–,3.83,"h_Nb1_C103W (VHH, also called 82) VHH: DVQLQESGGGLVQPGGSLRLSCAASGFTFSSYAMSWVRQAPGKGLEWVSDINSGGDNTDYADSVKGRFTISRDNAKNTLYLQMNSLKPEDTAVYYCARGPKLWFSSWGQGTQVTVSS",–
–,3.38,"h_Nb1_C103M (VHH, also called 81) VHH: DVQLQESGGGLVQPGGSLRLSCAASGFTFSSYAMSWVRQAPGKGLEWVSDINSGGDNTDYADSVKGRFTISRDNAKNTLYLQMNSLKPEDTAVYYCARGPKLMFSSWGQGTQVTVSS",–
